{"source": "patent US20160264634A1", "key": {"[1]": {"target": "mKv1.1 channel (mouse) (UniProt P16388)", "sequence (P16388 whole entry)": "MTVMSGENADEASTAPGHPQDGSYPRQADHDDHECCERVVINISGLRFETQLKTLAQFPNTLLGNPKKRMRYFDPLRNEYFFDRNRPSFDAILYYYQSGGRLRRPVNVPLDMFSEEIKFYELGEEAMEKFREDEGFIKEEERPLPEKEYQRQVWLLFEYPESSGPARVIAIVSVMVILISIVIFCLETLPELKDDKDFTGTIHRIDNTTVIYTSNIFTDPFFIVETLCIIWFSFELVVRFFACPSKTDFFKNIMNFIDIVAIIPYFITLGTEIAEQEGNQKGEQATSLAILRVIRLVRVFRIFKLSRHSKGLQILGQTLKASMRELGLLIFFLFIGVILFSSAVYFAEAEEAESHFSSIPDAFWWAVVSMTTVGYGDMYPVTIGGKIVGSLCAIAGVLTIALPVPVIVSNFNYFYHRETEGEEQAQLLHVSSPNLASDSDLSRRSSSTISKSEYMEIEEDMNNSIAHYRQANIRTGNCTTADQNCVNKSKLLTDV", "assay": "cell-based or functional assay"}, "[2]": {"target": "mKv1.3 channel (mouse) (UniProt P16390)", "sequence (P16390 whole entry)": "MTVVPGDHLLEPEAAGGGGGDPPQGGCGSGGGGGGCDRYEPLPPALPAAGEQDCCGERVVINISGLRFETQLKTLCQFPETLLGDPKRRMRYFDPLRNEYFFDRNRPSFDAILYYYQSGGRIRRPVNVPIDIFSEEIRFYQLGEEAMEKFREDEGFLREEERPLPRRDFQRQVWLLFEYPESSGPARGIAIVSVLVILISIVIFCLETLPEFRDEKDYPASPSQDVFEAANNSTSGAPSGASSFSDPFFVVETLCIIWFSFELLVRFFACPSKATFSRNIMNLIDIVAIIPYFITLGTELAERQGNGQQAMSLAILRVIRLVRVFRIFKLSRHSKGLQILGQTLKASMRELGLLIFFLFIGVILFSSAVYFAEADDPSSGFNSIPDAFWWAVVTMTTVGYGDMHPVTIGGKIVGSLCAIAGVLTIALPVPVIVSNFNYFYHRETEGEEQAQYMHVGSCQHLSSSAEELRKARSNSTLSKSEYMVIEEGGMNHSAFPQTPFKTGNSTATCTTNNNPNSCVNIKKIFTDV", "assay": "cell-based or functional assay"}}, "data": [{"substance": "ShK (from UniProt P29187 1-35) (peptide)", "values": [{"measurement": "IC50 of current block, whole-cell patch-clamp", "setting": "[1]", "value": 0.023, "unit": "nM"}, {"measurement": "IC50 of current block, whole-cell patch-clamp", "setting": "[2]", "value": 0.009, "unit": "nM"}]}, {"substance": "ShK-K-amide (from UniProt P29187 1-35) (peptide)", "values": [{"measurement": "IC50 of current block, whole-cell patch-clamp", "setting": "[2]", "value": 0.026, "unit": "nM"}]}, {"substance": "ShK-amide (from UniProt P29187 1-35) (peptide)", "values": [{"measurement": "IC50 of current block, whole-cell patch-clamp", "setting": "[1]", "value": 0.037, "unit": "nM"}, {"measurement": "IC50 of current block, whole-cell patch-clamp", "setting": "[2]", "value": 0.035, "unit": "nM"}]}]}
